Measured values reported in patent US20230054860.

Molecular target: WDR26 (endogenous) (UniProt Q9H7D7)
Chain of UniProt Q9H7D7 (Q9H7D7 whole entry): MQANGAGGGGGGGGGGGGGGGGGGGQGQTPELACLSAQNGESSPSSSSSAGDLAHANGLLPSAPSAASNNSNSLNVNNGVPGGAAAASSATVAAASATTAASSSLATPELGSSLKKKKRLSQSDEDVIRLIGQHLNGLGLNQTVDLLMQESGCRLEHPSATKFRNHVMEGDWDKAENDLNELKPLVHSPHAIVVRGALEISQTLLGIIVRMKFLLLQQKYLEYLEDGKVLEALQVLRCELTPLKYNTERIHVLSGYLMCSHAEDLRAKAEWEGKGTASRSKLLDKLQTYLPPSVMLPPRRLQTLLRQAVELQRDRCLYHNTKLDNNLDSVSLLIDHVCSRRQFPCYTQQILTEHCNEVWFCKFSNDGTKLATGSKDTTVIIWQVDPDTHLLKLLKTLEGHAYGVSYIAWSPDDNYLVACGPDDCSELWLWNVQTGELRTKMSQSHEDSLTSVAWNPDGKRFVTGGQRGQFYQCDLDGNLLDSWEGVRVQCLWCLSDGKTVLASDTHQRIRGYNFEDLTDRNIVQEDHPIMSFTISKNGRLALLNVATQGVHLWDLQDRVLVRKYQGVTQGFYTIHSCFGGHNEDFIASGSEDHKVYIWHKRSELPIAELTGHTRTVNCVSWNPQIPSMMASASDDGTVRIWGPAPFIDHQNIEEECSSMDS

Question: AKT (endogenous) was tested. Which “AKT phosphorylation levels (pAKT S473, western blot)” value did it give?
Answer: ultimately leading to a decrease in AKT phosphorylation levels
